The nature of the series: self-splicing fitness, log relative to wild type (ln ratio); higher = more splicing; Tetrahymena group I intron in knt gene, E. coli kanamycin selection, DiMSum; sequences stand for … in CUCUCU…GGAGGGAAAAGUUAUCAGGCAUGCACCUGGUAGCUAGUCUUUAAACCAAUAGAUUGCAUCGGUUUAAAAGGCAAGACCGUCAAAUUGCGGGAAAGGGGUCAACAGCCGUUCAGUACCAAGUCUCAGGGGAAACUUUGAGAUGGCCUUGCAAAGGGUAUGGUAAUAAGCUGACGGACAUGGUCCUAACCACGCAGCCAAGUCCUAAGUCAACAGAUCUUCUGUUGAUAUGGAUGCAGUUCACAGACUAAAUGUCGGUCGGGGAAGAUGUAUUCUUCUCAUAAGAUAUAGUCGGACCUCUCCUUAAUGGGAGCUAGCGGAUGAAGUGAUGCAACACUGGAGCCGCUGGGAACUAAUUUGUAUGCGAAAGUAUAUUGAUUAGUUUUGGAGUACUCGUGGUCG
In a few lines:
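The eight P1ex-region nucleotides of an intron in the knt kanamycin-resistance gene on pET-22b(+) were all randomised and the library put into E. coli BL21(DE3). Six replicate transformations were grown overnight at 37°C or 30°C on LB agar with or without 25 μg/mL kanamycin, together with 100 μg/mL carbenicillin, 50 μM IPTG and 0.2% rhamnose. Colonies were pooled and amplicon-sequenced on an Illumina HiSeq 2500. Fitness from DiMSum is the error-weighted combination of wild-type-normalised replicate fold changes, kanamycin over none.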

± gives the uncertainty stated by the source.

For the sequence AGUCAGCAAUAUUACGCUCU, the “self-splicing fitness (ln)” value is, setting by setting: (30 °C) -1.01 ± 0.2; (37 °C) -0.342 ± 0.21. AGUCAGCAAUAUUACGGAAA: the “self-splicing fitness (ln)” value is -2.78 ± 0.19 (30 °C) and -2 ± 0.15 (37 °C). Turning to AGUCAGCAAUAUUACGGCCA, the “self-splicing fitness (ln)” value is -0.485 ± 0.14 (30 °C) and -0.0722 ± 0.2 (37 °C).

For the sequence AGUCAGCAAUAUUACGGGAG, the “self-splicing fitness (ln)” value is -3.52 ± 0.15 (30 °C) and -1.41 ± 0.11 (37 °C).

As to AGUCAGCAAUAUUACGGGGG, the “self-splicing fitness (ln)” value (30 °C) is -3.61 ± 0.21 and the “self-splicing fitness (ln)” value (37 °C) is -2.6 ± 0.22. The corresponding values for AGUCAGCAAUAUUACGGUGG are -3.01 ± 0.26 and -1.79 ± 0.24. The corresponding values for AGUCAGCAAUAUUACGUACG are -0.473 ± 0.08 and -0.0481 ± 0.1. Turning to AGUCAGCAAUAUUACGUCGA, the “self-splicing fitness (ln)” value is, setting by setting: (30 °C) -0.487 ± 0.1; (37 °C) -0.568 ± 0.13. The corresponding values for AGUCAGCAAUAUUACGUUUG are -4.04 ± 0.21 and -2.53 ± 0.19.

On to AGUGAGCAAUAUUACGAACG, for which the “self-splicing fitness (ln)” value by setting is: (30 °C) -0.686 ± 0.094; (37 °C) -0.206 ± 0.15. The corresponding values for AGUGAGCAAUAUUACGACGU are -0.966 ± 0.059 and -0.385 ± 0.066. Consider AGUGAGCAAUAUUACGAGAA, for which the “self-splicing fitness (ln)” value (30 °C) was -1.8 ± 0.48. Take AGUGAGCAAUAUUACGCAAU: the “self-splicing fitness (ln)” value runs as follows: (30 °C) -2.23 ± 0.4; (37 °C) -0.698 ± 0.43. Regarding AGUGAGCAAUAUUACGCAGA, the “self-splicing fitness (ln)” value (37 °C) was -1.35 ± 0.28. On to AGUGAGCAAUAUUACGCCGA, for which the “self-splicing fitness (ln)” value (30 °C) was -1.82 ± 0.31 and the “self-splicing fitness (ln)” value (37 °C) is -2.36 ± 0.4. AGUGAGCAAUAUUACGCGGC: the “self-splicing fitness (ln)” value (30 °C) is -3.16 ± 0.44.

Take AGUGAGCAAUAUUACGGACG: the “self-splicing fitness (ln)” value (30 °C) was -1.16 ± 0.15 and the “self-splicing fitness (ln)” value (37 °C) was -1.45 ± 0.21.

Consider AGUGAGCAAUAUUACGGCGU, for which the “self-splicing fitness (ln)” value is -1.08 ± 0.071 (30 °C) and -0.465 ± 0.084 (37 °C). The corresponding values for AGUGAGCAAUAUUACGGGUA are -3.22 ± 0.23 and -1.61 ± 0.26. As for AGUGAGCAAUAUUACGUAAU, the “self-splicing fitness (ln)” value (30 °C) was -3.13 ± 0.15 and the “self-splicing fitness (ln)” value (37 °C) is -1.7 ± 0.15. For AGUGAGCAAUAUUACGUAGC the same measures were -1.99 ± 0.14 and -3.39 ± 0.39. For AGUGAGCAAUAUUACGUCGU the same measures were -3.79 ± 0.2 and -2.07 ± 0.14. For AGUGAGCAAUAUUACGUUGC the same measures were -3.28 ± 0.2 and -2.18 ± 0.24.

Regarding AGUUAGCAAUAUUACGAAAC, the “self-splicing fitness (ln)” value (37 °C) was -0.856 ± 0.39. Turning to AGUUAGCAAUAUUACGACAA, the “self-splicing fitness (ln)” value runs as follows: (30 °C) -0.124 ± 0.18; (37 °C) -0.562 ± 0.18. For AGUUAGCAAUAUUACGACAC the same measures were -0.65 ± 0.12 and 0.204 ± 0.2. For AGUUAGCAAUAUUACGAGAG the same measures were -3.75 ± 0.29 and -2.24 ± 0.22. The corresponding values for AGUUAGCAAUAUUACGAGGC are -3.83 ± 0.27 and -3.27 ± 0.23. In the case of AGUUAGCAAUAUUACGCCAU, the “self-splicing fitness (ln)” value was -3.41 ± 0.21 (30 °C) and -1.53 ± 0.14 (37 °C). For AGUUAGCAAUAUUACGCCCA the same measures were -1.44 ± 0.32 and -0.867 ± 0.33. The corresponding values for AGUUAGCAAUAUUACGCGCU are -3.13 ± 0.21 and -2.4 ± 0.31. For AGUUAGCAAUAUUACGGAGG the same measures were -2.91 ± 0.3 and -2.13 ± 0.41.

Turning to AGUUAGCAAUAUUACGGGAC, the “self-splicing fitness (ln)” value was -3.33 ± 0.26 (30 °C) and -0.241 ± 0.12 (37 °C). The corresponding values for AGUUAGCAAUAUUACGGUGU are -3.11 ± 0.21 and -1.73 ± 0.21.

These data come from the supplement of paper PMC7877785.
